According to patent US20230109998A1, “MALARIA TRANSMISSION-BLOCKING VACCINES” (PATH, priority 2020, published 2023):

B1: tagged Pfs230D1+: N-terminal Pfs230 fragment (aa 552-731, N585Q) with C-terminal six histidine tag, SEQ ID NO: 2 (protein)
chain: DVGVDELDKIDLSYETTESGDTAVSEDSYDKYASQNTNKEYVCDFTDQLKPTESGPKVKKCEVKVNEPLIKVKIICPLKGSVEKLYDNIEYVPKKSPYVVLTKEETKLKEKLLSKLIYGLLISPTVNEKENNFKEGVIEFTLPPVVHKATVFYFICDNSKTEDDNKKGNRGIVEVYVEPYGHHHHHH
modifications: C-terminal His6 tag; Pfs230D1+
B2: non-tagged Pfs230D1+: N-terminal Pfs230 fragment (aa 552-731, N585Q) without C-terminal tag, SEQ ID NO: 1 (protein)
chain: DVGVDELDKIDLSYETTESGDTAVSEDSYDKYASQNTNKEYVCDFTDQLKPTESGPKVKKCEVKVNEPLIKVKIICPLKGSVEKLYDNIEYVPKKSPYVVLTKEETKLKEKLLSKLIYGLLISPTVNEKENNFKEGVIEFTLPPVVHKATVFYFICDNSKTEDDNKKGNRGIVEVYVEPYG
modifications: Pfs230D1+

How the values were obtained:
[1] = system: anti-Pfs230 human monoclonal antibodies; experiment: Western blotting of purified Pfs230D1+ with anti-Pfs230 human monoclonal antibodies; format: binding; conditions: Western blot, 10 μg/mL antibody, 20 ng protein per lane, non-reducing conditions
Method: Samples were diluted with 4×LDS (Lithium dodecyl sulfate, Invitrogen) sample buffer, heated for 5 min at 90° C. and loaded in a final volume of 20 μL/well on SDS-PAGE gels (4-12% NuPAGE Bis-Tris, Invitrogen). Gels were run at 150-200 V for 35-50 min in 1×2-(N-morpholino) ethanesulfonic acid (MES) sodium dodecyl sulfate (SDS) running buffer and stained with SimplyBlue™ SafeStain (Invitrogen).
Following SDS-PAGE, proteins were transferred onto nitrocellulose membrane and Western blot procedure using anti-Pfs230 human monoclonal antibodies (non patent related). The human monoclonal antibodies were tested for reactivity at 10 μg/mL to 20 ng of Pfs230D1+(non-tagged or tagged) loaded per lane. A secondary goat anti-human antibody was used at 1/2000 dilution followed by development with BCIP/NBT substrate.

P. falciparum NF54 line = experiment: Rat immunization, ELISA of antiserum and standard membrane feeding assay (SMFA) of purified IgG; format: in vivo, Plasmodium falciparum; conditions: SD rats i.m., 20 μg antigen with composition of Example 6 as adjuvant; 250 ug/mL total IgG with complement in SMFA
Method: SD rats (Charles River Laboratories Japan) were immunized intramuscularly (i.m.) in the thigh muscles of the hind limb with 50 μL of a vaccine formulation consisting of 20 μg of an antigen, tagged Pfs230D1+ or non-tagged Pfs230D1+, and 8110 μg of the composition of Example 6 as an adjuvant (which corresponded to 10 μg of Compound A); 20 μg of tagged Pfs230D1+ alone for FIG. 2 or 20 μg of tagged Pfs230D1+ and 8110 μg of the composition of Example 6 for FIG. 5; or 8110 μg of the composition of Example 6 alone as a control. Rats received two or three injections on day 0 and 21 or day 0, 21, and 42. On day 42 or 56, rats were sacrificed, and blood was collected. After collection of the whole blood, the blood allowed to clot by leaving it undisturbed at room temperature for 4 hours. The clot was removed by centrifuging at 2,000×g for 10 minutes in a refrigerated centrifuge.
For the sera on day 42 or 56, the antibody levels against corresponding proteins were determined individually by ELISA (FIG. 2a for tagged Pfs230D1+, FIG. 5a for non-tagged Pfs230D1+).
For each group, an equal amount of serum from each rat was pooled regardless of ELISA units. […]
The standardized methodology for performing the SMFA is known in the art. […] Only midguts from mosquitoes with any eggs in their ovaries at the time of dissection were analysed (FIG. 2b for tagged Pfs230D1+, FIG. 5b for non-tagged Pfs230D1+). […]

Molecule	reactivity to anti-Pfs230 monoclonal antibodies [1]	reactivity to anti-Pfs230 monoclonal antibodies ([1]; listed as Pfs230D1+ containing histidine-tag)	induction of functional antibodies (ELISA units, transmission reducing activity in SMFA) (P. falciparum NF54 line)	reactivity to anti-Pfs230 monoclonal antibodies ([1]; listed as Non-tagged Pfs230D1+)
B1	reacted under non-reducing conditions	reacted to two conformational dependent anti-Pfs230 monoclonal antibodies	induced functional antibodies in rats	–
B2	reacted under non-reducing conditions	–	induced functional antibodies in rats	reacted to two conformational dependent anti-Pfs230 monoclonal antibodies
